Laboratory results as given in patent US20220235123A1 (UNIVERSITY OF TORONTO, published 2022).

Key:
[1] = target: recombinant human vascular endothelial growth factor (hVEGF) 121 (human) (UniProt P15692); test: single point competitive phage-ELISA: residual binding of the Fab-phage to hVEGF after competition with 1 nM hVEGF
[2] = target: T1, recombinant human VEGF 165 isoform (human, UniProt P15692 27-191); test: competitive ELISA in solution, 10 pM hVEGF-165, free VEGF read with Quantikine kit
T1 construct: mature
Description: (§1) Kd calculated from the data fitted with a 5 parameter asymmetric model with Prism software.
Target sequence in this assay (P15692 other isoform, or with tags, fused parts or gaps): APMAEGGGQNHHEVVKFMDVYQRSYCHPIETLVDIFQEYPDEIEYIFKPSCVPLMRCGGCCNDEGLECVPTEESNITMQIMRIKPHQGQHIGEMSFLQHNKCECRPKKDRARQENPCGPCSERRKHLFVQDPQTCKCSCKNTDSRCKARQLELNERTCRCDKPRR

[3] = target: T2, recombinant human vascular endothelial growth factor (hVEGF) 121 (human, UniProt P15692 27-147); test: competitive ELISA, 100 pM Fab with serial dilutions of hVEGF-121, free Fab caught on hVEGF-121 plate; Kd estimated from IC50
T2 construct: mature; also called human VEGF-A121; hVEGF 121 isoform
T2 sequence (looked up): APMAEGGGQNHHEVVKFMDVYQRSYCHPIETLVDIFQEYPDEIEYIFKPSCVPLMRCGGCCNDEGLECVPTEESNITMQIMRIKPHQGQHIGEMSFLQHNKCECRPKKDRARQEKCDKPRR

[4] = target: T2, recombinant human vascular endothelial …; test: competitive Fab-ELISA (hVEGF)
[5] = target: T2, recombinant human vascular endothelial …; test: single point competitive phage-ELISA: residual binding of the Fab-phage to hVEGF after competition with 1 nM hVEGF
[6] = target: T1, recombinant human VEGF 165 isoform; test: cell-based or functional assay
[7] = target: T1, recombinant human VEGF 165 isoform; test: competitive ELISA in solution: 5 pM hVEGF-165 incubated with serial dilutions of the Fab; hVEGF-165 captured and detected with the Quantikine human VEGF ELISA kit
Description: FIG. 11. Competitive Fab-ELISA.
Since library FF01159-1 was designed with a deletion of one residue near the end of CDR-L2 (Kabat), the selected Fabs FF03033-4 and FF03033-8 were mutagenized to reintroduce previously deleted tyrosine residue back at the deleted position.

[8] = target: T1, recombinant human VEGF 165 isoform; test: competitive ELISA in solution: 5 pM hVEGF-165 incubated with serial dilutions of the antibody; hVEGF-165 captured and detected with the Quantikine human VEGF ELISA kit
[9] = target: T1, recombinant human VEGF 165 isoform; test: competitive ELISA in solution: 5 pM hVEGF-165 incubated with serial dilutions of the antibody; hVEGF-165 captured and detected with the Quantikine human VEGF ELISA kit; 5 parameter fit
[10] = target: T1, recombinant human VEGF 165 isoform; test: competitive ELISA in solution: 10 pM hVEGF-165 incubated with serial dilutions of the Fab; hVEGF-165 captured and detected with the Quantikine human VEGF ELISA kit
Description: FIG. 20. Competitive-ELISA. […] Kd was estimated using IC50 calculated from the data fitted with a 5 parameter asymmetric model with Prism software are shown in the table at the bottom of the figure.
as §1

[11] = target: T2, recombinant human vascular endothelial …; test: competitive ELISA with soluble Fab (column 'Affinity measured by competitive ELISA'); hVEGF, isoform not told in the legend
[12] = target: T2, recombinant human vascular endothelial …; test: competitive Fab-ELISA, data and fit for the Kd of panel A; x axis printed as LOG([Fab] nM) with ticks 10^-6 to 10^2; hVEGF, isoform not told
[13] = target: T2, recombinant human vascular endothelial …; test: competitive Fab-ELISA
[14] = target: T2, recombinant human vascular endothelial …; test: SPR, off rate of hVEGF-121 binding

B1: FF0117-A10 (Fab, V domains shown)
VH: EVQLVESGGGLVQPGGSLRLSCAASGFDLFHYSIHWVRQAPGKGLEWVAYIYPSYGYTYYADSVKGRFTISADTSKNTAYLQMNSLRAEDTAVYYCARHAWYYGWALDYWGQGTLVTVSS
VL: DIQMTQSPSSLSASVGDRVTITCRASQSVSSAVAWYQQKPGKAPKLLIYSASSLYSGVPSRFSGSRSGTDFTLTISSLQPEDFATYYCQQRGWYLFTFGQGTKVEIK
- Residual binding of competitive phage-ELISA 1nM [1]: 7%

B2: Fab 201 (Variant 201, produced from Clone #201) (Fab, V domains shown)
VH: EVQLVESGGGLVQPGGSLRLSCAASGFDLFHYSIHWVRQAPGKGLEWVAYIYPSYGYTYYADSVKGRFTISADTSKNTAYLQMNSLRAEDTAVYYCARHAWYYGWGLDYWGQGTLVTVSS
VL: DIQMTQSPSSLSASVGDRVTITCRASQAAYGRVAWYQQKPGKAPKLLIYKASELYAGVPSRFSGSRSGTDFTLTISSLQPEDFATYYCQQRGWYLFTFGQGTKVEIKR
notes: also called Fab-F8.y
- Kd [2]: 0.025 nM
- Kd [3]: 0.11 nM

B3: FF0117-A8 (Fab, V domains shown)
VH: EVQLVESGGGLVQPGGSLRLSCAASGFDLFHYSIHWVRQAPGKGLEWVAYIYPSYGYTYYADSVKGRFTISADTSKNTAYLQMNSLRAEDTAVYYCARHAWYSGWALDYWGQGTLVTVSS
VL: DIQMTQSPSSLSASVGDRVTITCRASQSVSSAVAWYQQKPGKAPKLLIYSASSLYSGVPSRFSGSRSGTDFTLTISSLQPEDFATYYCQQRGWYLFTFGQGTKVEIK
notes: fourth generation Fab from the library based on FF0188-H5
- Kd [4]: 0.13 nM
- Residual binding of competitive phage-ELISA 1nM [5]: 17%

B4: FF0117-A11 (Fab, V domains shown)
VH: EVQLVESGGGLVQPGGSLRLSCAASGFDLFHYSIHWVRQAPGKGLEWVAYIYPSYGYTYYADSVKGRFTISADTSKNTAYLQMNSLRAEDTAVYYCARHAWYWGWALDYWGQGTLVTVSS
VL: DIQMTQSPSSLSASVGDRVTITCRASQSVSSAVAWYQQKPGKAPKLLIYSASSLYSGVPSRFSGSRSGTDFTLTISSLQPEDFATYYCQQRGWYLFTFGQGTKVEIK
notes: as for B3
- Kd [4]: 0.03 nM
- Residual binding of competitive phage-ELISA 1nM [5]: 5%

B5: Fab FF03046-2 (Fab, V domains shown)
VH: EVQLVESGGGLVQPGGSLRLSCAASGFDLFHYSIHWVRQAPGKGLEWVAYIYPSYGYTYYADSVKGRFTISADTSKNTAYLQMNSLRAEDTAVYYCARHAWYYGWGLDYWGQGTLVTVSS
VL: DIQMTQSPSSLSASVGDRVTITCRASQAAYGRVAWYQQKPGKAPKLLIYKASELYAGVPSRFSGSRSGTDFTLTISSLQPEDFATYYCQQRGWYLFTFGQGTKVEIKR
notes: also called FF0346-2
- EC50, HUVEC proliferation assay [6]: 0.2 nM
- IC50 (read off the curve) [7]: ~0.09 nM
- IC50 (read off the curve) [8]: ~0.09 nM
- Kd [9]: 0.09 nM

B6: Fab variant 216 (Fab 216, derived from Clone #201) (Fab, V domains shown)
VH: EVQLVESGGGLVQPGGSLRLSCAASGFDLDHYSIHWVRQAPGKGLEWVAYIYPSYGYTYYADSVKGRFTISADTSKNTAYLQMNSLRAEDTAVYYCARHAWYYGWGLDYWGQGTLVTVSS
VL: DIQMTQSPSSLSASVGDRVTITCRASQAAYGRVAWYQQKPGKAPKLLIYKASELYAGVPSRFSGSRSGTDFTLTISSLQPEDFATYYCQQRGWYLFTFGQGTKVEIKR
- Kd [2]: 0.035 nM
- IC50 (read off the curve) [10]: ~0.04 nM

B7: FF0188-H5 (Fab, V domains shown)
VH: EVQLVESGGGLVQPGGSLRLSCAASGFDLFHYSIHWVRQAPGKGLEWVAYIYPSYGYTYYADSVKGRFTISADTSKNTAYLQMNSLRAEDTAVYYCARHAWYSGWAMDYWGQGTLVTVSS
VL: DIQMTQSPSSLSASVGDRVTITCRASQSVSSAVAWYQQKPGKAPKLLIYSASSLYSGVPSRFSGSRSGTDFTLTISSLQPEDFATYYCQQRGWYLFTFGQGTKVEIK
notes: third generation Fab, parent of the FF0117 library; also called FF0188-H5(2)
- Kd [4]: 0.4 nM
- Kd [11]: 0.45 nM
- IC50 (read off the curve) [12]: ~0.4 nM

B8: FF0158-C4 (Fab, V domains shown)
VH: EVQLVESGGGLVQPGGSLRLSCAASGFNLYYYSIHWVRQAPGKGLEWVAYIYPSYGYTYYADSVKGRFTISADTSKNTAYLQMNSLRAEDTAVYYCARHAWYSGWAMDYWGQGTLVTVSS
VL: DIQMTQSPSSLSASVGDRVTITCRASQSVSSAVAWYQQKPGKAPKLLIYSASSLYSGVPSRFSGSRSGTDFTLTISSLQPEDFATYYCQQRGWYLFTFGQGTKVEIK
notes: Second generation Fab, Fab-phage in the single point assay; also called FF0158-C4 (2)
- Kd [11]: 0.15 nM
- IC50 (read off the curve) [12]: ~0.1 nM

B9: FF0188-B10 (Fab, V domains shown)
VH: EVQLVESGGGLVQPGGSLRLSCAASGFDLFHYSIHWVRQAPGKGLEWVAYIYPSYGYTYYADSVKGRFTISADTSKNTAYLQMNSLRAEDTAVYYCARHAWYSGWAMDYWGQGTLVTVSS
VL: DIQMTQSPSSLSASVGDRVTITCRASQSVSSAVAWYQQKPGKAPKLLIYSASSLYSGVPSRFSGSRSGTDFTLTISSLQPEDFATYYCQQRGWYLFTFGQGTKVEIK
notes: third generation Fab from libraries based on FF0158-C4; also called FF01088-B10
- Kd [11]: 0.41 nM
- IC50 (read off the curve) [12]: ~0.4 nM

B10: FF0117-A3 (Fab, V domains shown)
VH: EVQLVESGGGLVQPGGSLRLSCAASGFDLFHYSIHWVRQAPGKGLEWVAYIYPSYGYTYYADSVKGRFTISADTSKNTAYLQMNSLRAEDTAVYYCARHAWYFGWALDYWGQGTLVTVSS
VL: DIQMTQSPSSLSASVGDRVTITCRASQSVSSAVAWYQQKPGKAPKLLIYSASSLYSGVPSRFSGSRSGTDFTLTISSLQPEDFATYYCQQRGWYLFTFGQGTKVEIK
notes: as for B3
- Kd [4]: 0.06 nM
- Residual binding of competitive phage-ELISA 1nM [5]: 7%

B11: FF0117-A5 (Fab, V domains shown)
VH: EVQLVESGGGLVQPGGSLRLSCAASGFDLFHYSIHWVRQAPGKGLEWVAYIYPSYGYTYYADSVKGRFTISADTSKNTAYLQMNSLRAEDTAVYYCARHAWYYGWGLDYWGQGTLVTVSS
VL: DIQMTQSPSSLSASVGDRVTITCRASQSVSSAVAWYQQKPGKAPKLLIYSASSLYSGVPSRFSGSRSGTDFTLTISSLQPEDFATYYCQQRGWYLFTFGQGTKVEIK
notes: Fourth generation Fab; also called FF0117-A5 (2); Fab-A5
- Kd [13]: 0.08 nM
- koff [14]: 0.000255 s⁻¹
- Residual binding of competitive phage-ELISA 1nM [5]: 14%
